Reference: patent US20060211610A1 (IPSEN PHARMA S A S, published 2006)
Non-standard residues stand in square brackets, D forms with d. Ala(4-thiazolyl) = N[C@@H](Cc1cscn1)C(=O)O; 2Pal = N[C@@H](Cc1ccccn1)C(=O)O; 3Pal = N[C@@H](Cc1cccnc1)C(=O)O; 4Pal = N[C@@H](Cc1ccncc1)C(=O)O; d2Pal = N[C@H](Cc1ccccn1)C(=O)O; Ac6c = NC1(C(=O)O)CCCCC1; Ac5c = NC1(C(=O)O)CCCC1

T1: Y2 receptor (human, UniProt P49146 1-381)
T1 construct: whole, on cells; Assayed as membrane homogenates of SK-N-BE2 cells, not intact cells
T1 sequence (looked up): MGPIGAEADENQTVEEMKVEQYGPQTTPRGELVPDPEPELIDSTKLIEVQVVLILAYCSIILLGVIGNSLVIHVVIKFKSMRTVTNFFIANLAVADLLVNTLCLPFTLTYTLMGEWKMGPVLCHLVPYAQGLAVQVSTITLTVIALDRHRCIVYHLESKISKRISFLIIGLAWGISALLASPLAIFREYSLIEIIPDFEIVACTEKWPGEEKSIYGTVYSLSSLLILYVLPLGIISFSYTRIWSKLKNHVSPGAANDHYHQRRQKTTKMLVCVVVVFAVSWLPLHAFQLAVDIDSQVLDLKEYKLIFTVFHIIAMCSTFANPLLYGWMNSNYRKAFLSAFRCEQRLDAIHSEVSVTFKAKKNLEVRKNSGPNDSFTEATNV

T2: Y1 receptor (human, UniProt P25929 1-384)
T2 construct: whole, on cells; Assayed as membrane homogenates of SK-N-MC cells, not intact cells; also called NPY Y1
T2 sequence (looked up): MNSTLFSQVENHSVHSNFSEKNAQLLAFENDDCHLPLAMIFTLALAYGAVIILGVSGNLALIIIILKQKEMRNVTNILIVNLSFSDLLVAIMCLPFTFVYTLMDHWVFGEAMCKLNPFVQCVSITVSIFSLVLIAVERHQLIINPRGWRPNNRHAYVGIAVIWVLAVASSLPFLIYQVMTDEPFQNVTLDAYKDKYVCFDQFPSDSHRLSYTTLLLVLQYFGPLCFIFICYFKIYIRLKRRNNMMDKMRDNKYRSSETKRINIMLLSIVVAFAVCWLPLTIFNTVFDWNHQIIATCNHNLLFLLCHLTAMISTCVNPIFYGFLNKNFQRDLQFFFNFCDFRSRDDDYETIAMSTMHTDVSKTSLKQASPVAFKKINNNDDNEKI

B1: Ac-[3Pal^26]hPYY(22-36)NH2 (peptide)
peptide: Ac-ASLR[3Pal]YLNLVTRQRY-NH2
SMILES: CC(=O)N[C@@H](C)C(=O)N[C@@H](CO)C(=O)N[C@@H](CC(C)C)C(=O)N[C@@H](CCCNC(=N)N)C(=O)N[C@@H](Cc1cccnc1)C(=O)N[C@@H](Cc1ccc(O)cc1)C(=O)N[C@@H](CC(C)C)C(=O)N[C@@H](CC(N)=O)C(=O)N[C@@H](CC(C)C)C(=O)N[C@H](C(=O)N[C@H](C(=O)N[C@@H](CCCNC(=N)N)C(=O)N[C@@H](CCC(N)=O)C(=O)N[C@@H](CCCNC(=N)N)C(=O)N[C@@H](Cc1ccc(O)cc1)C(N)=O)[C@@H](C)O)C(C)C
notes: Synthetic analog of human PYY(22-36)
B2: Ac-(3Pal^26, Leu^31)hPPY(24-36)NH2 (peptide)
peptide: Ac-LR[3Pal]YLNLLTRQRY-NH2
SMILES: CC(=O)N[C@@H](CC(C)C)C(=O)N[C@@H](CCCNC(=N)N)C(=O)N[C@@H](Cc1cccnc1)C(=O)N[C@@H](Cc1ccc(O)cc1)C(=O)N[C@@H](CC(C)C)C(=O)N[C@@H](CC(N)=O)C(=O)N[C@@H](CC(C)C)C(=O)N[C@@H](CC(C)C)C(=O)N[C@H](C(=O)N[C@@H](CCCNC(=N)N)C(=O)N[C@@H](CCC(N)=O)C(=O)N[C@@H](CCCNC(=N)N)C(=O)N[C@@H](Cc1ccc(O)cc1)C(N)=O)[C@@H](C)O
notes: Also carries Leu at 31 (residue 8 of the peptide), already in the entry
B3: Ac-[A6c^28]hPYY(22-36)NH2 (peptide)
peptide: Ac-ASLRHY[Ac6c]NLVTRQRY-NH2
SMILES: CC(=O)N[C@@H](C)C(=O)N[C@@H](CO)C(=O)N[C@@H](CC(C)C)C(=O)N[C@@H](CCCNC(=N)N)C(=O)N[C@@H](Cc1c[nH]cn1)C(=O)N[C@@H](Cc1ccc(O)cc1)C(=O)NC1(C(=O)N[C@@H](CC(N)=O)C(=O)N[C@@H](CC(C)C)C(=O)N[C@H](C(=O)N[C@H](C(=O)N[C@@H](CCCNC(=N)N)C(=O)N[C@@H](CCC(N)=O)C(=O)N[C@@H](CCCNC(=N)N)C(=O)N[C@@H](Cc2ccc(O)cc2)C(N)=O)[C@@H](C)O)C(C)C)CCCCC1
notes: as for B1
B4: Ac-(4Pal^26, Leu^31)hPPY(24-36)NH2 (peptide)
peptide: Ac-LR[4Pal]YLNLLTRQRY-NH2
SMILES: CC(=O)N[C@@H](CC(C)C)C(=O)N[C@@H](CCCNC(=N)N)C(=O)N[C@@H](Cc1ccncc1)C(=O)N[C@@H](Cc1ccc(O)cc1)C(=O)N[C@@H](CC(C)C)C(=O)N[C@@H](CC(N)=O)C(=O)N[C@@H](CC(C)C)C(=O)N[C@@H](CC(C)C)C(=O)N[C@H](C(=O)N[C@@H](CCCNC(=N)N)C(=O)N[C@@H](CCC(N)=O)C(=O)N[C@@H](CCCNC(=N)N)C(=O)N[C@@H](Cc1ccc(O)cc1)C(N)=O)[C@@H](C)O
notes: as for B2
B5: Ac-[A5c^31]hPYY(22-36)NH2 (peptide)
peptide: Ac-ASLRHYLNL[Ac5c]TRQRY-NH2
SMILES: CC(=O)N[C@@H](C)C(=O)N[C@@H](CO)C(=O)N[C@@H](CC(C)C)C(=O)N[C@@H](CCCNC(=N)N)C(=O)N[C@@H](Cc1c[nH]cn1)C(=O)N[C@@H](Cc1ccc(O)cc1)C(=O)N[C@@H](CC(C)C)C(=O)N[C@@H](CC(N)=O)C(=O)N[C@@H](CC(C)C)C(=O)NC1(C(=O)N[C@H](C(=O)N[C@@H](CCCNC(=N)N)C(=O)N[C@@H](CCC(N)=O)C(=O)N[C@@H](CCCNC(=N)N)C(=O)N[C@@H](Cc2ccc(O)cc2)C(N)=O)[C@@H](C)O)CCCC1
notes: as for B1
B6: Ac-[D2Pal^26]hPYY(22-36)NH2 (peptide)
peptide: Ac-ASLR[d2Pal]YLNLVTRQRY-NH2
SMILES: CC(=O)N[C@@H](C)C(=O)N[C@@H](CO)C(=O)N[C@@H](CC(C)C)C(=O)N[C@@H](CCCNC(=N)N)C(=O)N[C@H](Cc1ccccn1)C(=O)N[C@@H](Cc1ccc(O)cc1)C(=O)N[C@@H](CC(C)C)C(=O)N[C@@H](CC(N)=O)C(=O)N[C@@H](CC(C)C)C(=O)N[C@H](C(=O)N[C@H](C(=O)N[C@@H](CCCNC(=N)N)C(=O)N[C@@H](CCC(N)=O)C(=O)N[C@@H](CCCNC(=N)N)C(=O)N[C@@H](Cc1ccc(O)cc1)C(N)=O)[C@@H](C)O)C(C)C
notes: as for B1
B7: Ac-[A6c^30]hPYY(22-36)NH2 (peptide)
peptide: Ac-ASLRHYLN[Ac6c]VTRQRY-NH2
SMILES: CC(=O)N[C@@H](C)C(=O)N[C@@H](CO)C(=O)N[C@@H](CC(C)C)C(=O)N[C@@H](CCCNC(=N)N)C(=O)N[C@@H](Cc1c[nH]cn1)C(=O)N[C@@H](Cc1ccc(O)cc1)C(=O)N[C@@H](CC(C)C)C(=O)N[C@@H](CC(N)=O)C(=O)NC1(C(=O)N[C@H](C(=O)N[C@H](C(=O)N[C@@H](CCCNC(=N)N)C(=O)N[C@@H](CCC(N)=O)C(=O)N[C@@H](CCCNC(=N)N)C(=O)N[C@@H](Cc2ccc(O)cc2)C(N)=O)[C@@H](C)O)C(C)C)CCCCC1
notes: as for B1
B8: Ac-[4Pal^26]hPYY(22-36)NH2 (peptide)
peptide: Ac-ASLR[4Pal]YLNLVTRQRY-NH2
SMILES: CC(=O)N[C@@H](C)C(=O)N[C@@H](CO)C(=O)N[C@@H](CC(C)C)C(=O)N[C@@H](CCCNC(=N)N)C(=O)N[C@@H](Cc1ccncc1)C(=O)N[C@@H](Cc1ccc(O)cc1)C(=O)N[C@@H](CC(C)C)C(=O)N[C@@H](CC(N)=O)C(=O)N[C@@H](CC(C)C)C(=O)N[C@H](C(=O)N[C@H](C(=O)N[C@@H](CCCNC(=N)N)C(=O)N[C@@H](CCC(N)=O)C(=O)N[C@@H](CCCNC(=N)N)C(=O)N[C@@H](Cc1ccc(O)cc1)C(N)=O)[C@@H](C)O)C(C)C
notes: as for B1
B9: Ac-(2Pal^26, Leu^31)hPPY(24-36)NH2 (peptide)
peptide: Ac-LR[2Pal]YLNLLTRQRY-NH2
SMILES: CC(=O)N[C@@H](CC(C)C)C(=O)N[C@@H](CCCNC(=N)N)C(=O)N[C@@H](Cc1ccccn1)C(=O)N[C@@H](Cc1ccc(O)cc1)C(=O)N[C@@H](CC(C)C)C(=O)N[C@@H](CC(N)=O)C(=O)N[C@@H](CC(C)C)C(=O)N[C@@H](CC(C)C)C(=O)N[C@H](C(=O)N[C@@H](CCCNC(=N)N)C(=O)N[C@@H](CCC(N)=O)C(=O)N[C@@H](CCCNC(=N)N)C(=O)N[C@@H](Cc1ccc(O)cc1)C(N)=O)[C@@H](C)O
notes: as for B2
B10: Ac-[A6c^31]hPYY(22-36)NH2 (peptide)
peptide: Ac-ASLRHYLNL[Ac6c]TRQRY-NH2
SMILES: CC(=O)N[C@@H](C)C(=O)N[C@@H](CO)C(=O)N[C@@H](CC(C)C)C(=O)N[C@@H](CCCNC(=N)N)C(=O)N[C@@H](Cc1c[nH]cn1)C(=O)N[C@@H](Cc1ccc(O)cc1)C(=O)N[C@@H](CC(C)C)C(=O)N[C@@H](CC(N)=O)C(=O)N[C@@H](CC(C)C)C(=O)NC1(C(=O)N[C@H](C(=O)N[C@@H](CCCNC(=N)N)C(=O)N[C@@H](CCC(N)=O)C(=O)N[C@@H](CCCNC(=N)N)C(=O)N[C@@H](Cc2ccc(O)cc2)C(N)=O)[C@@H](C)O)CCCCC1
notes: as for B1
B11: Ac-(Taz^26, Leu^31)hPPY(24-36)NH2 (peptide)
peptide: Ac-LR[Ala(4-thiazolyl)]YLNLLTRQRY-NH2
SMILES: CC(=O)N[C@@H](CC(C)C)C(=O)N[C@@H](CCCNC(=N)N)C(=O)N[C@@H](Cc1cscn1)C(=O)N[C@@H](Cc1ccc(O)cc1)C(=O)N[C@@H](CC(C)C)C(=O)N[C@@H](CC(N)=O)C(=O)N[C@@H](CC(C)C)C(=O)N[C@@H](CC(C)C)C(=O)N[C@H](C(=O)N[C@@H](CCCNC(=N)N)C(=O)N[C@@H](CCC(N)=O)C(=O)N[C@@H](CCCNC(=N)N)C(=O)N[C@@H](Cc1ccc(O)cc1)C(N)=O)[C@@H](C)O
notes: as for B2

molecular target: T1, Y2 receptor; experiment: radioligand competition against [125I]PYY(3-36), SK-N-BE2 membranes, Cheng-Prusoff
Experimental: (§1) The final pellets were resuspended in approximately 20 ml of 50 mM Tris-HCl containing 5.0 mM MgCl₂, 0.1 mg/ml bacitracin, and 0.1% BSA (Buffer B), and held on ice for the receptor binding assay.
(§2) For assay, aliquots (0.4 ml) of the foregoing suspensions were incubated with 0.05 ml of 0.05 nM [¹²⁵I-Leu³¹, Pro³⁴]PYY (Y1 receptor) or [¹²⁵I]PYY(3-36) (Y2 receptor), (each ˜2200 Ci/mmol, New England Nuclear) in Buffer B, with or without 0.05 ml a solution (ranging from 0.01 nM -1000 nM) of an unlabeled competing peptide. After a 120 min incubation (25° C.), the bound radioligand was separated from the free by rapid filtration through GF/C filters, previously soaked in 0.3% polyethyleneimine. […] Inhibition constants (K₁,) were calculated using the well-known Cheng-Prusoff equation.

| Ki | Binder |
| --- | --- |
| < 1000 nM | B1 |
| < 1000 nM | B2 |
| < 1000 nM | B3 |
| < 1000 nM | B4 |
| < 1000 nM | B5 |
| < 1000 nM | B6 |
| < 1000 nM | B7 |
| < 1000 nM | B8 |
| < 1000 nM | B9 |
| < 1000 nM | B10 |
| < 1000 nM | B11 |

molecular target: T2, Y1 receptor; experiment: radioligand competition against [125I-Leu31,Pro34]PYY, SK-N-MC membranes, Cheng-Prusoff
Experimental: as §1, §2

| Ki | Binder |
| --- | --- |
| < 2000 nM | B1 |
| < 2000 nM | B2 |
| < 2000 nM | B3 |
| < 2000 nM | B4 |
| < 2000 nM | B5 |
| < 2000 nM | B6 |
| < 2000 nM | B7 |
| < 2000 nM | B8 |
| < 2000 nM | B9 |
| < 2000 nM | B10 |
| < 2000 nM | B11 |
